Assay results as given in patent publication US20260250325A1, “Antiviral Polypeptide Membrane Fusion Inhibitor, and Preparation Method and Application Thereof” (priority 2025, published 2026).
Like-named read-outs stand apart in the source and are kept apart here. Where a SMILES comes first, the peptide text is derived from it. The star is where a group is joined. X1 = CC(C)CCCC(C)C1CCC2C3CC=C4CC(OC(=O)CCC(=O)*)CCC4(C)C3CCC12C

Experiments:
[1] = system: RSV A long virus strain; type: cell-based
Summary of the method: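 HEp-2 cells (30000/well) infected with 100 PFU virus premixed 1 h with compound (8 concentrations, duplicate); after 2 h adsorption, cultured 1 day at 37 °C under 0.8% CMC overlay with compound. Plaques immunostained (RSV antibody, TrueBlue) and counted; IC50 and CC50 by non-linear fitting of % inhibition versus virus and cell controls.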

[2] = Cytotoxicity test in HEp-2 cells (CCK8 cell viability); type: cell-based; details: human
Summary of the method: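 HEp-2 cells seeded at 30,000/well, cultured overnight at 37° C./5% CO2, then exposed to diluted compound for 1 day in 0.5% DMSO. Viability read by CCK8, normalised to untreated-cell and medium-only controls; CC50 from four-parameter variable-slope fit.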

[3] = biological target: hPIV-N51 (139-189) (human parainfluenza virus (hPIV))
[4] = substrate: F protein of hMPV virus strain A2 (human metapneumovirus, strain A2); experiment: cell-based or functional assay
[5] = substrate: F protein of hPIV Type 3 (hPIV3 C243) (human parainfluenza virus type 3, strain C243); experiment: cell-based or functional assay
[6] = substrate: F protein of hMPV virus strain B1 (human metapneumovirus, strain B1); experiment: cell-based or functional assay
[7] = biological target: T1, F protein of RSV A long virus strain (respiratory syncytial virus, RSV A long virus strain), P12568; experiment: cell-based or functional assay
T1 chain: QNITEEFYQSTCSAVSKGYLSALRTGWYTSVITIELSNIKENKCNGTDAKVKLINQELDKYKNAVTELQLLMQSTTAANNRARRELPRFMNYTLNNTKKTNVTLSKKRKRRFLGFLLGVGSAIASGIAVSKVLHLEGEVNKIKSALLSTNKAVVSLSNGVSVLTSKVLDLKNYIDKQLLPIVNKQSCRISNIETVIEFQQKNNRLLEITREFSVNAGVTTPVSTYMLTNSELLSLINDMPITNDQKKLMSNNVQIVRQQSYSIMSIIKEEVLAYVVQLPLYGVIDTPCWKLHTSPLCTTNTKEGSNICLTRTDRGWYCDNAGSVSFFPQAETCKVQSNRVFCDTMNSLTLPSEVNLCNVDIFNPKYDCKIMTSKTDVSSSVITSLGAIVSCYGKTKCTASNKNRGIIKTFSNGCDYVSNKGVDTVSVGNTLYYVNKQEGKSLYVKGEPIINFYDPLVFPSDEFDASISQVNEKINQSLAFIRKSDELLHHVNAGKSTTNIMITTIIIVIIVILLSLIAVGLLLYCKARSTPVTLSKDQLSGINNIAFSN

[8] = RSV A long virus strain, HEp-2 cells, plaque reduction, 1 day, read-out: IC50
[9] = HEp-2 cells, CCK8, 1 day, read-out: CC50

Chain of hPIV-N51 (139-189) (human parainfluenza virus (hPIV)) (P06828 139-189): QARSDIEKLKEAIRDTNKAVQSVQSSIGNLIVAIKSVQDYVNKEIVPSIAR

| Molecule | IC50 [1, 8] [nM] | CC50 at 1 day [2, 9] [nM] | IC50 [1] [nM] | CC50 at 1 day [2] [nM] | Kd [3] [nM] | EC50 (nM), plaque reduction, hMPV A2, Vero cells [4] [nM] | EC50 (nM), plaque reduction, hPIV3 C243, LLC-MK2 cells [5] [nM] | EC50 (nM), plaque reduction, hMPV B1, Vero cells [6] [nM] | IC50/nM, Cell fusion inhibition activity (plaque reduction, RSV A long strain, HEp-2 cells) [7] [nM] |
| --- | --- | --- | --- | --- | --- | --- | --- | --- | --- |
| CC[C@H](C)[C@H](NC(=O)[C@H](C)NC(=O)[C@H](C)NC(=O)[C@H](CC(C)C)NC(=O)[C@H](CO)NC(=O)[C@H](CCC(N)=O)NC(=O)[C@H](CC(N)=O)NC(=O)[C@@H](NC(=O)[C@H](CCCCN)NC(=O)[C@H](CCC(=O)O)NC(=O)[C@H](CC(N)=O)NC(=O)[C@@H](NC(=O)[C@H](CCC(N)=O)NC(=O)[C@H](CO)NC(=O)[C@@H](NC(=O)[C@H](CO)NC(=O)[C@H](C)NC(=O)[C@H](CC(=O)O)NC(=O)[C@H](Cc1ccccc1)NC(=O)[C@H](CCC(=O)O)NC(=O)[C@H](CC(=O)O)NC(=O)[C@H](CO)NC(=O)[C@@H]1CCCN1C(=O)[C@H](Cc1ccccc1)NC(=O)[C@@H](NC(C)=O)C(C)C)[C@@H](C)CC)C(C)C)[C@@H](C)CC)C(=O)N[C@@H](CCCNC(=N)N)C(=O)N[C@@H](CCCCN)C(=O)N[C@@H](CO)C(=O)N[C@@H](CC(=O)O)C(=O)N[C@@H](CCC(=O)O)C(=O)N[C@@H](CC(C)C)C(=O)N[C@@H](CC(C)C)C(=O)N[C@@H](Cc1c[nH]cn1)C(=O)N[C@@H](CC(N)=O)C(=O)N[C@H](C(N)=O)C(C)C [Positive polypeptide 6, reference compound] (Ac-VFPSDEFDASISQVNEKINQSLAAIRKSDELLHNV-NH2) | > 300 | > 10000 |  |  |  |  |  |  |  |
| Ac-FDASISQVNEKINQSLAFIRKSDELLHNVNAGKSTTEAAAKK(X1)-NH2 [Positive polypeptide 7, reference compound] | > 300 | > 10000 |  |  |  |  |  |  |  |
| Ac-FDFDEFDASISQVNEKINESLAFIRLAFIRKSDELLEAAAKK-NH2 [Compound 24] | 2650 | > 8000 |  |  |  |  |  |  |  |
| Ac-SLEQVNKINEKINKISQSLKKIEESDKKSDEVNAGLEAAAKK-NH2 [Compound 48] |  |  | > 8000 | > 8000 |  |  |  |  |  |
| Ac-SLEQVNKINKKIDKIEESLKKIEESDKKSLEVNKKLEAAAKK-NH2 [Compound 47] |  |  | > 8000 | > 8000 |  |  |  |  |  |
| Ac-SLEQVNKKIEQSLESLKKSDKINQSLEEVNKSDELLEAAAKK-NH2 [Compound 49] |  |  | > 8000 | > 8000 |  |  |  |  |  |
| Ac-WDEFDKKIEEVNKKIEESLKKIEESDKKLEEVNKKLEAAAKK(X1)-NH2 [Compound 9] | 95.7 | > 8000 |  |  |  |  |  |  |  |
| Ac-WDEFDKKIEEVNKKIEESLKKIEESDKKLEEVNKKLGSGSGK(X1)-NH2 [Compound 11] | 99.1 | > 8000 |  |  |  |  |  |  |  |
| WDEFDASISQVNEKINQSLEEIRKSDELLHNVNAGLGSGSGK (modifications not checked) [Compound 27] |  |  |  |  | 812 | 78.3 | 27.2 | 10.5 | 25.7 |
| LVKKIDEFDASISQVNEKINQSLEEIRKSDELLHNVGSGSGK (modifications not checked) [Compound 29] |  |  |  |  | 1730 | 41.6 | 26.3 | 11.1 | 19.3 |
| WDEFDKKIEEVNKKIEESLKKIEESDKKLHNVEAAAKK (modifications not checked) [Compound 44] |  |  |  |  | 6860 | 14.6 | 27.9 | 6.6 | 12.4 |
| DEFDKKKIEEVNKKIEESLKKIEESDKKLEEVEAAAKK (modifications not checked) [Compound 22] |  |  |  |  | 20800 | 88.4 | 65.4 | 18 | 11.3 |
| SDEFDKKIEEVNKKIEESLKKIEESDKKLGSGSGK (modifications not checked) [Compound 20] |  |  |  |  | 6800 | 7.47 | 59.5 | 4.27 | 19.8 |
| SDELVNKKIEFDKKINQSLKKIEESDKKKLEAAAKK (modifications not checked) [Compound 51] |  |  |  |  | 51.4 | 18.8 | 18.8 | 3.82 | 9.9 |
| YDELVFDASQVNEKINQSLEKIRKSDELLHNVGSGSGK (modifications not checked) [Compound 25] |  |  |  |  | 74600 | 86.4 | 29.4 | 38.1 | 28.7 |
| DEFDKKIEEVNKKIEESLKKIEESDKKLEAAAKK (modifications not checked) [Compound 17] |  |  |  |  | 314 | 8.78 | 52.6 | 3.61 | 17.6 |
| DEFDKKIEEVNKKIEESLKKIEESDKKLEEVNEAAAKK (modifications not checked) [Compound 14] |  |  |  |  | 495 | 18.9 | 31.4 | 5.36 | 9.9 |
| WDEFDASISQVNEKINQSLEEIRKSDELLHNEAAAKK (modifications not checked) [Compound 45] |  |  |  |  | 178000 | 200 | 36.3 | 13.1 | 12.2 |
| DEFDASISQVNEKINQSLEEIRKSDELLHNEAAAKK (modifications not checked) [Compound 28] |  |  |  |  | 983000 | 58.6 | 54.4 | 13.8 | 12.4 |
| FDEEISQVNEKINQSLAFIRKSDELLHNVNAGKSTTEAAAKK (modifications not checked) [Compound 26] |  |  |  |  | 2580 | 103 | 1.35 | 2.85 | 12.8 |
| WDEFDKKIEEVNKKIEESLKKIEESDKKLEAAAKK (modifications not checked) [Compound 13] |  |  |  |  | 2280 | 11.7 | 35.6 | 6.18 | 13 |
| SDEFDKKIEEVNKKIEESLKKIEESDKKLEAAAKK (modifications not checked) [Compound 16] |  |  |  |  | 5400 | 7.35 | 59 | 4.5 | 10.3 |
